From the supplement of paper PMC7877785
± gives the uncertainty stated by the source.

Experiment: self-splicing fitness, log relative to wild type (ln ratio); higher = more splicing; Tetrahymena group I intron in knt gene, E. coli kanamycin selection, DiMSum; sequences stand for … in CUCUCU…GGAGGGAAAAGUUAUCAGGCAUGCACCUGGUAGCUAGUCUUUAAACCAAUAGAUUGCAUCGGUUUAAAAGGCAAGACCGUCAAAUUGCGGGAAAGGGGUCAACAGCCGUUCAGUACCAAGUCUCAGGGGAAACUUUGAGAUGGCCUUGCAAAGGGUAUGGUAAUAAGCUGACGGACAUGGUCCUAACCACGCAGCCAAGUCCUAAGUCAACAGAUCUUCUGUUGAUAUGGAUGCAGUUCACAGACUAAAUGUCGGUCGGGGAAGAUGUAUUCUUCUCAUAAGAUAUAGUCGGACCUCUCCUUAAUGGGAGCUAGCGGAUGAAGUGAUGCAACACUGGAGCCGCUGGGAACUAAUUUGUAUGCGAAAGUAUAUUGAUUAGUUUUGGAGUACUCGUGGUCG
Outline: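 Library with all eight P1ex-region intron nucleotides randomised, intron inside the knt kanamycin-resistance gene on pET-22b(+), in E. coli BL21(DE3). Cells grew overnight at 37°C or 30°C on LB agar with or without 25 μg/mL kanamycin (plus 100 μg/mL carbenicillin, 50 μM IPTG, 0.2% rhamnose), in six replicate transformations. Pooled colonies were amplicon-sequenced on Illumina HiSeq 2500. DiMSum fitness is the error-weighted combination of wild-type-normalised replicate fold changes, kanamycin versus none.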

Row | Sequence | self-splicing fitness (ln) (30 °C) | self-splicing fitness (ln) (37 °C)
1 | AGCUAGCAAUAUUACGAGAG | -2.83 ± 0.15 | -3.13 ± 0.28
2 | UACCAGCAAUAUUACGAUGU | -1.9 ± 0.091 | -1.41 ± 0.11
3 | AUGUAGCAAUAUUACGGCGU | -1.14 ± 0.11 | -0.716 ± 0.094
4 | CGAAAGCAAUAUUACGACAG | -0.552 ± 0.068 | -0.0312 ± 0.081
5 | UGGAAGCAAUAUUACGUUGU | -3.64 ± 0.37 | -2.88 ± 0.3
6 | AUUCAGCAAUAUUACGUCGG | -3.16 ± 0.17 | -2.28 ± 0.21
7 | CGCGAGCAAUAUUACGGCUG | -0.795 ± 0.094 | -0.637 ± 0.13
8 | AUCAAGCAAUAUUACGUAUU | -2.7 ± 0.09 | -1.5 ± 0.11
9 | CGCUAGCAAUAUUACGGCCG | -1.19 ± 0.17 | -1.11 ± 0.14
10 | UGAAAGCAAUAUUACGCUCG | -1.22 ± 0.14 | 0.141 ± 0.18
11 | GGCAAGCAAUAUUACGCCCU | -2.53 ± 0.26 | -0.495 ± 0.19
12 | AGAAAGCAAUAUUACGCAUA | -2.44 ± 0.16 | -1.19 ± 0.16
13 | CGGUAGCAAUAUUACGGUGA | -3.76 ± 0.41 | -0.848 ± 0.17
14 | AACUAGCAAUAUUACGAAGG | -3.46 ± 0.2 | -2.74 ± 0.26
15 | CCAAAGCAAUAUUACGGCGU | -3.49 ± 0.12 | -2.62 ± 0.14
16 | GUAAAGCAAUAUUACGUGAG | -2.03 ± 0.084 | -0.98 ± 0.1
17 | UAUGAGCAAUAUUACGGACU | -3.55 ± 0.4 | -2.46 ± 0.26
18 | GGAUAGCAAUAUUACGGGUG | -2.79 ± 0.33 | -0.239 ± 0.17
19 | GGUCAGCAAUAUUACGUCCG | -0.0947 ± 0.13 | -0.124 ± 0.19
20 | GAAAAGCAAUAUUACGGAGA | -3.59 ± 0.26 | -2.19 ± 0.21
21 | GUAUAGCAAUAUUACGGAGG | -2.94 ± 0.23 | -3.14 ± 0.4
22 | CUCGAGCAAUAUUACGGAAC | -3.24 ± 0.24 | -1.98 ± 0.25
23 | GUGAAGCAAUAUUACGACUG | -1.37 ± 0.09 | -0.924 ± 0.14
24 | GCAUAGCAAUAUUACGUGCC | -3.42 ± 0.21 | -1.03 ± 0.29

Row | Sequence | self-splicing fitness (ln) (30 °C) | self-splicing fitness (ln) (37 °C)
25 | CAGGAGCAAUAUUACGGACU | -1.86 ± 0.14 | -1.75 ± 0.3
26 | GAGGAGCAAUAUUACGUAAG | -3.04 ± 0.27 | -2.13 ± 0.34
27 | GACGAGCAAUAUUACGGCUA | -0.73 ± 0.11 | -0.653 ± 0.11
28 | UCAUAGCAAUAUUACGAGAG | -2.96 ± 0.24 | -2.44 ± 0.22
29 | AUAAAGCAAUAUUACGAUAG | -2.82 ± 0.15 | -0.468 ± 0.14
30 | CGGUAGCAAUAUUACGCGGC | -3.99 ± 0.24 | -2.79 ± 0.25
31 | CCUCAGCAAUAUUACGGGAU | -4.21 ± 0.2 | -2.55 ± 0.17
32 | AUUAAGCAAUAUUACGGCGU | -0.179 ± 0.073 | 0.712 ± 0.097
33 | AUCAAGCAAUAUUACGCGCG | -1.01 ± 0.094 | -0.0559 ± 0.13
34 | GGUAAGCAAUAUUACGGGGC | -3.8 ± 0.32 | -2.09 ± 0.31
35 | GGCAAGCAAUAUUACGAACU | -1.18 ± 0.16 | 0.413 ± 0.14
36 | AGAUAGCAAUAUUACGCAAG | -2.2 ± 0.15 | -0.0746 ± 0.16
37 | AGAAAGCAAUAUUACGAAGA | -2.95 ± 0.24 | -2.27 ± 0.33
38 | CUGUAGCAAUAUUACGCUGU | -3.78 ± 0.36 | -2.53 ± 0.27
39 | AGAGAGCAAUAUUACGCUAC |  | -2.33 ± 0.45
40 | UUAAAGCAAUAUUACGAGGU | -4.09 ± 0.24 | -3.3 ± 0.27
41 | AUGGAGCAAUAUUACGGUAA |  | -1.08 ± 0.16
42 | ACAAAGCAAUAUUACGUAUA | -2.79 ± 0.2 | -2.09 ± 0.22
43 | AUACAGCAAUAUUACGCUCG | -0.288 ± 0.12 | -0.205 ± 0.15
44 | CUAAAGCAAUAUUACGCAGG | -0.529 ± 0.12 | -1.09 ± 0.19
45 | ACCAAGCAAUAUUACGGUAC | -3.83 ± 0.22 | -1.16 ± 0.15
46 | GCAAAGCAAUAUUACGGCAU | -0.675 ± 0.095 | 0.0956 ± 0.1
47 | CUACAGCAAUAUUACGGCGG | -1.34 ± 0.084 | -1.47 ± 0.094
48 | GUGGAGCAAUAUUACGAUUC | -0.681 ± 0.31 | 0.0106 ± 0.22
